Assay results as given in patent US11497796B2, “Agents directed against a cis RGMa/neogenin interaction or lipid rafts and use of the same in methods of treatment” (UNIVERSITY HEALTH NETWORK, priority 2013, dated 2022).
No end group written: not given here.

Key:
4Ig-domain of Neogenin = biological target: T1, 4Ig-domain of Neogenin (Gallus gallus, UniProt Q90610); test: ELISA / AP binding assay of RGMa peptides to Neogenin domains; details: AP-tagged fragments 1.0 μg/mL on coated His-tagged 4Ig
T1 construct: made in house
T1 sequence (Q90610 1-383): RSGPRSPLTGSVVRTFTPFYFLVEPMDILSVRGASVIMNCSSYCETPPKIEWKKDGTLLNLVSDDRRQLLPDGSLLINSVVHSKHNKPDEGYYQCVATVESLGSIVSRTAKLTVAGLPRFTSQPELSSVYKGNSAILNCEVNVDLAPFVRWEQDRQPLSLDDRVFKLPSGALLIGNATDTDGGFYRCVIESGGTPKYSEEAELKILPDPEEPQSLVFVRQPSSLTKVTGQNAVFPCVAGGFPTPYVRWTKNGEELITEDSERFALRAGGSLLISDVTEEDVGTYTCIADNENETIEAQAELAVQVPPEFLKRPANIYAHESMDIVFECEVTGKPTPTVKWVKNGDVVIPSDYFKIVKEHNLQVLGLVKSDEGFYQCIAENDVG
Source text: Specifically, the 4Ig-domain and 6FNIII-domain of Neogenin were each fused to alkaline phosphatase (AP). The 4Ig-domain and 6FNIII-domain of Neogenin were found in the extracellular portion of Neogenin. Accession No. AAC59662 (SEQ ID NO:1) was the amino acid sequence of Neogenin. The 4Ig-domain was amino acids 1 to 383 of Accession No. AAC59662 (SEQ ID NO:1). The 6FNIII-domain was amino acids 429 to 1036 of Accession No. AAC59662 (SEQ ID NO:1).
The binding of these fusions to various RGMa peptides were analyzed in an ELISA assay (FIG. 2A).
To determine if distinct N-terminal regions of RGMa bound the 4Ig- and 6FNIII-domains of Neogenin, peptides were generated that spanned the N-terminal region of RGMa. The amino acid sequence of RGMa was Accession No. NP_989868.1 (SEQ ID NO:6). These peptides were a peptide spanning amino acids 28-73 of RGMa (also referred to herein as “N-Raft”) and a peptide spanning amino acids 77-113 of RGMa (also referred to herein as “N-inh”). […] In a complementary experiment, in which the N-Raft and N-inh peptides of RGMa were fused with AP instead of the 4Ig- and 6FNIII-domains of Neogenin, N-Raft bound to the 4Ig-domain and not the 6FNIII-domain while N-inh bound to the 6FNIII-domain and not the 4Ig-domain (FIG. 9). Additionally, N-inh and N-Raft coated beads pulled down 6FNIII-domain and 4Ig-domain, respectively, which was consistent with the ELISA results described above (FIG. 2B).
The assay was conducted in a 96-well microtiter plate (Corning Incorporated). The wells were coated with 100 μl (10 μg/mL) of Poly-L-Lysine at 4° C. overnight. Wells were then washed three times with 100 μl of PB ST (+0.02% Tween).
50 μl (2.5 μg/mL) of His-tagged: Full-length Neogenin; the 4Ig-domain of Neogenin; and 6FNIII-domain of Neogenin were coated onto each well for 1 hour at 37° C. Following three washes of 100 μl PBST, each well was then blocked with 300 μl of 3% BSA in PBST for 1 hour at 37° C.
50 μl (1.0 μg/mL) AP-tagged: N-RGMa (28-73); N-RGMa (28-54); N-RGMa (40-62); N-RGMa (54-73); N-RGMa (54-62) in 1% BSA+PBST was then added to each well and incubated at 37° C. for 1 hour. Each well was washed thoroughly three times with 100 μl PBST followed by subsequent equilibration of each well with Alkaline Phosphatase (AP) developing buffer (100 mM NaHCO3, 1 mM MgCl2). The reaction was developed using AP developing buffer supplemented with, p-nitrophenyl phosphate (pNPP) (Sigma-Aldrich) and allowed to develop until color development. The reaction was stopped with the addition of 50 μl (0.1M) NaOH. The absorbance of each reaction was measured using a microplate autoreader (BIO-TEK Instruments Inc.) at 405 nanometers (nm) wavelength.

[1] = test system: temporal retinal explants (axonal outgrowth); test: Retinal explants outgrowth assay; type: cell-based, chick
Protocol: Poly-L-Lysine (SIGMA; 10 μg/ml) coated glass coverslips were treated with Laminin (Invitrogen; 10 μg/ml) and RGMa proteins (5 μg/ml) and incubated for 3 hours at room temperature. Temporal retinal explants were cultured on protein-coated surfaces for 18 hours. To disrupt the lipid rafts, explants were pretreated with 10 mM methyl-β-cyclodextrin (MβCD) for 12 minutes or 2 U/ml cholesterol oxidase (CO) for 1 hour at 37° C. Explants were then fixed with 4% paraformaldehyde (PFA) and stained with Alexa488-phalloidin. Fiber length was quantified using Image Pro 5.0. For immunolocalization, explants were treated with Cholera Toxin B-FITC (C1655; Sigma; 10 mg/mL) and patched, fixed and stained with Neogenin antibody. Retinal ganglion cells (RGCs) were electroporated with RGMa-His and cultured for 18 hours. The cells were fixed and stained with Neogenin and His-tag antibodies.
Retinal explants outgrowth assay. Poly-L-Lysine (PLL; SIGMA; 10 μg/ml) coated glass coverslips were treated with Laminin (10 μg/ml; Invitrogen) and RGMa proteins (5 μg) and incubated for 3 hrs at room temperature. PLL treated coverslips were coated with myelin overnight (6 μg/cm2), followed by coating with Laminin. Temporal retinal explants were cultured on either myelin or protein-coated surfaces in DMEM F-12 media (2% chick serum, 10% FBS) for 18 h. To disrupt rafts, explants were pre-treated with 10 mM MβCD for 12 min or 2 U/ml CO for 1 h at 37° C., washed, and cultured on protein coated coverslips. Explants were then fixed with 4% PFA and stained with Alexa488-fluor-phalloidin (1:50; Molecular Probes). Fiber length was quantified using Image Pro 5.0.
Statistical analysis of retinal outgrowth assays was performed using Student's two-tail t-test using Excel (Microsoft). Results were expressed as the mean±SEM (n=at least 3 independent experiments; 2 duplicates per independent experiment, >10 explants per duplicate).

[2] = test system: retinal ganglion cells (RGCs); test: Retinal organotypic cultures (whole mounts), propidium iodide cell death; type: cell-based; details: perturbing lipid rafts
Protocol: (A) HEK293 cells that stably express RGMa (FIG. 11) were transfected with empty plasmid (Ctrl) or Neogenin (Neo). Neogenin induced cell death (arrows) when compared to control. (B) Quantification of cell death in Neogenin-transfected cells that were incubated in BSA (Neo+Ctrl), 4Ig (1 μg/ml), N-Raft (1 μg/ml), Noggin (100 nM), or MβCD (10 mM). […] Data were average±SEM (n=3 independent experiments), *p<0.0001. (C) Representative images and (D) Quantification of cell death in chick E5 tecta electroporated with GFP- and a Neogenin-expression plasmid and then injected with N-RGMa50-99 (Ctrl; 1 μg/ml), 4Ig (1 μg/ml), or N-Raft (1 μg/ml) and subjected to TUNEL assay. […] Data were an average±SEM from 3 different tecta/conditions (*p<0.001). Bar, 100 μm. (E) Representative images and (F) Quantification of retinal whole mounts incubated for 4 days with control peptide (1 μg/ml), 4Ig (1 μg/ml), N-Raft (1 μg/ml), or MβCD (10 mM) and dead cells were stained with Propidium Iodide (PI). Images from 9 whole mounts per condition from 3 independent experiments were taken at the same intensities and the fluorescence measured using ImageJ. […] Bar, 500 μm. (G) Fluorescence micrographs of flat-mounted retinas depicting Fluorogold-labeled retinal ganglion cells (RGCs) in injured retinas at 14 days following axotomy. Control retinas (Ctrl) had few surviving RGCs. 4Ig, N-raft or MβCD increased cell survival. Bar, 200 μm. (H) Representations of the retinal areas selected in our analyses. […] Data were average±SEM (n=6 eyes), *p<0.01.
For this study, retinal organotypic cultures were used, in which axotomy of retinal ganglion cells (RGCs) deprived the cells of tropic factors and induced apoptosis. Cell death was detected using propidium iodide (PI) and all images were taken at the same intensity with the RGC-layer in focus. Cell death was gauged by measuring the relative PI intensity of whole mounts.

[3] = test system: Neogenin association with lipid rafts; test: Lipid raft fractionation of injected chick brain/tecta; type: in vivo; details: injected into chick brain/optic tectum one day before fractionation
Protocol: Injected chick E8 tecta (4Ig, 2 mg/mL; N-raft, 1 mg/mL; methyl-β-cyclodextrin (10 mM)) or transfected cells (Neogenin and RGMa) were collected 24 hours later, lysed and placed at the bottom of a sucrose density gradient (0.9-0.8-0.75-0.7-0.6-0.5-0.4-0.2 M) and centrifuged at 38,000 rpm for 16 hours in SW 60 rotor (Beckman Instruments Inc.).
Proteins (4Ig, 2 mg/ml; N-Raft, 1 mg/mL; RGMaΔ, 5 mg/ml; methyl-β-cyclodextrin (10 mM)) were injected in chick E8 optic tectum and tecta were collected 24 hrs later. HEK cells were transfected with Neogenin and different RGMa constructs and collected 48 hrs later. For treatment with RGMaΔ, Neogenin transfected cells were treated with RGMaΔ (2 mg/ml) and BMP-2 (100 nM) and further incubated for 1 hr at 37° C. Tecta (3 tecta for each set of experiment) and/or cells were solubilized in chilled buffer (25 mM Tris-HCl, pH 7.4, 150 mM NaCl, 5 mM EDTA and protease inhibitor cocktail) and passed through G25 and G30 needles, respectively, and centrifuged at 800 g for 10 min at 4° C. Cold Triton X-100 was added to the post nuclear supernatant to a final concentration of 1% and incubated on ice for 1 hour. 2× volume of 2M sucrose was added and sample placed at the bottom of a sucrose density gradient (0.9-0.8-0.75-0.7-0.6-0.5-0.4-0.2 M) and centrifuged at 38,000 rpm for 16 hours in SW 60 rotor (Beckman Instruments Inc.). 400 μl fractions were collected from top (top numbered 1 and next eight fractions numbered consequently) and stored at −80° C.
As such, it was examined if overexpressing recombinant 4Ig and N-Raft competed with the endogenous 4Ig and N-Raft domains to displace Neogenin from the lipid raft fractions to the non-lipid raft fractions. Specifically, N-Raft, 4Ig-domain, or a control peptide, which was amino acid residues 50-99 of RGMa (also referred to herein as “N-RGMa^50-99”), was injected into the optic tectum at E8. The tecta were collected a day later for fractionation-analyses.

N-RGMa (40-62aa): amino acids 40-62 of RGMa (SEQ ID NO:4), AP-tagged (WAATSGSHHLGAEETPEFCTALR; also: AP-tagged)
binding to the 4Ig-domain of Neogenin (4Ig-domain of Neogenin): bound specifically

N-RGMa (54-73aa): amino acids 54 to 73 of RGMa (SEQ ID NO:3), AP-tagged (TPEFCTALRAYAHCTRRTAR; cysteine pairing not given here; also: AP-tagged)
binding to the 4Ig-domain of Neogenin (4Ig-domain of Neogenin): bound specifically

cholesterol oxidase [CO]
axonal outgrowth on RGMa proteins after lipid raft disruption ([1]; 10 mM MβCD or 2 U/ml of CO): restored to control values | enhancement of cell survival vs. control [2]: about 50%

B1: Noggin: BMP-chelator, Accession No. AAA83259 (SEQ ID NO:5) (protein, listed as Homo sapiens)
chain: MERCPSLGVTLYALVVVLGLRATPAGGQHYLHIRPAPSDNLPLVDLIEHPDPIFDPKEKDLNETLLRSLLGGHYDPGFMATSPPEDRPGGGGGAAGGAEDLAELDQLLRQRPSGAMPSEIKGLEFSEGLAQGKKQRLSKKLRRKLQMWLWSQTFCPVLYAWNDLGSRFWPRYVKVGSCFSKRSCSVPEGMVCKPSKSVHLTVLRWRCQRRGGQRCGWIPIQYPIISECKCSC
modifications: Noggin - Accession No. AAA83259
outgrowth in retinal explants (E8) exposed to N-RGMa, C-RGMa or RGMaΔ ([1]; in presence of Noggin): restored outgrowth | axonal outgrowth, agent alone ([1]; no RGMa protein): unaffected | Neogenin localization in membrane fractions [3]: not present in the lipid rafts

B2: N-RGMa (SEQ ID NO:10): N-RGMa from mouse (protein)
chain: MQPPRERLVVTGRAGWMGMGRGAGRSALGLWPTLAFLLCSFPAAISPCKILKCNSEFWSATSSGSHAPASDDVPEFCAALRTYALCTRRTARTCRGDLAYHSAVHGIEDLMSQHNCSKDGPTSQPRVRTLPPAGDSQERSDSPEICHYEKSFHKHSAAPNYT
modifications: Mouse N-RGMa
notes: N-RGMa from mouse
binding to the 4Ig-domain of Neogenin (4Ig-domain of Neogenin): demonstrated binding

B3: N-RGMc (SEQ ID NO:9): N-RGMc from mouse (protein)
chain: MGQSPSPRSPHGSPPTLSTLTLLLLLCGQAHSQCKILRCNAEYVSSTLSLRGGGSPDTPRGGGRGGLASGGLCRALRSYALCTRRTARTCRGDLAFHSAVHGIEDLMIQHNCSRQGPTAPPPARGPALPGAGPAPLTPDPCDYEARFSRLHGRAPGFLHCASFGD
modifications: Mouse N-RGMc
notes: N-RGMc from mouse
binding to the 4Ig-domain of Neogenin (4Ig-domain of Neogenin): demonstrated binding

B4: C-RGMa: C-terminal RGMa isoform of the CNS (protein)
chain: PHLRTFTDTFQTCKVQGAWPLIDNNYLNVQVTNTPVLPGSSATATSKLTIIFKSFQECVEQKVYQAEMDELPAAFADGSKNGGDKHGANSLKITEKVSGQHIEIQAKYIGTTIVVRQVGRYLTFAVRMPEEVVNAVEDRDSQGLYLCLRGCPLNQQIDFQTFRLAQAAEGRARRKGPSLPAPPEAFTYESATAKCREKLPVEDLYFQSCVFDLLTTGDVNFMLAAYYAFEDVKMLHSNKDKLHLYERTRALAPGN
effect on axonal outgrowth when provided as growth substrate (in trans) ([1]; protein as substrate): blocked axon growth
